Blocking of OX40L-mediated T cell activation, IFNγ secretion, IC50, IC50 and maximum inhibition rate data for 1 molecule are collected here from US20230151105A1.

Assay [1] addresses human OX40 expressed on the cell surface (human) (UniProt P43489). The assay is described as follows: cell-based or functional assay.
For assay [2], the target named is recombinant OX40-Fc protein (R & D, Cat 3388-OX) (human) (UniProt P43489). As to the kind of experiment: blocking ELISA: OX40-Fc coated, antibody titrated, competitor OX40L at 50 ng/ml. On the technique in general: An ELISA detects its analyte on a solid surface through an enzyme-linked reagent.
Sequence of recombinant OX40-Fc protein (R & D, Cat 3388-OX) (human) (P43489 29-214): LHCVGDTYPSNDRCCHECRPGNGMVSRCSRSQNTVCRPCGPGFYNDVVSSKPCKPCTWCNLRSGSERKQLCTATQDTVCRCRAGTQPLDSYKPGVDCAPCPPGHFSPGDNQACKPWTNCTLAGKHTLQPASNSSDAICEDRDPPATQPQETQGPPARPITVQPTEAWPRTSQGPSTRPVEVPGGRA

Sequence of human OX40 expressed on the cell surface (human) (P43489 29-277): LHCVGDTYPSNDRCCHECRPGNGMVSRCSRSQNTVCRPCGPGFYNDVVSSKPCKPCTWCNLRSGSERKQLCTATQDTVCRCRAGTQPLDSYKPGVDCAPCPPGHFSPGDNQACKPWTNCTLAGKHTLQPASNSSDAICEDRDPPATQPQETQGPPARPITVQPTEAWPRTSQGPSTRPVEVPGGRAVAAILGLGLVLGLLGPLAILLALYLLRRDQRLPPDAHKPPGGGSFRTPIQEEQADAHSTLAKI

B1: GBR830 (antibody, from another filing, V domains shown)
VH: QVTLKESGPALVKPTQTLTLTCSFSGFSLSTSGMGVGWIRQPPGKALEWIAHIWWDDDKYYNTALKTRLTISKDTSKNQVVLTMTNMDPVDTATYYCARIDWDGFAYWGQGTLVTVSS
VL: EIVLTQSPATLSLSPGERATLSCRASSSVSYMHWYQQKPGQAPRPWIYATSNRATGIPARFSGSGSGTDYTLTISSLEPEDFAVYYCQQWSSNPWTFGQGTKVEIKR
Regarding B1, the blocking of OX40L-mediated T cell activation, IFNγ secretion, IC50 in assay [1] is 1.1 nM. In addition, in assay [2], the IC50 is 0.3 nM and the maximum inhibition rate turned out to be 50%.

In general, IC50 refers to the concentration needed to halve the response being measured.
